Reference: US20160193299A1, “MODIFIED NUCLEOSIDE, NUCLEOTIDE, AND NUCLEIC ACID COMPOSITIONS” (Moderna Therapeutics, Inc., priority 2011, published 2016)

Experiments:
HeLa cells = test: Chemical modifications on luciferase mRNA, HeLa transfection (RLU); assay type: cell-based; settings: 83 ng luciferase mRNA, 18 to 22 hours
Protocol: The day before transfection, 20,000 HeLa cells (ATCC no. CCL-2; Manassas, Va.) were harvested by treatment with Trypsin-EDTA solution (Life Technologies, Grand Island, N.Y.) and seeded in a total volume of 100 ul EMEM medium (supplemented with 10% FCS and 1× Glutamax) per well in a 96-well cell culture plate (Corning, Manassas, Va.). The cells were grown at 37° C. in 5% CO2 atmosphere overnight. […] Lipofectamine 2000 (LifeTechnologies, Grand Island, N.Y.) was used as transfection reagent and 0.2 ul were diluted in 10 ul final volume of OPTI-MEM. After 5 minutes of incubation at room temperature, both solutions were combined and incubated an additional 15 minute at room temperature. Then the 20 ul combined solution was added to the 100 ul cell culture medium containing the HeLa cells and incubated at room temperature.
After 18 to 22 hours of incubation cells expressing luciferase were lysed with 100 ul of Passive Lysis Buffer (Promega, Madison, Wis.) according to manufacturer instructions. Aliquots of the lysates were transferred to white opaque polystyrene 96-well plates (Corning, Manassas, Va.) and combined with 100 ul complete luciferase assay solution (Promega, Madison, Wis.). […] The plate reader was a BioTek Synergy H1 (BioTek, Winooski, Vt.). The background signal of the plates without reagent was about 200 relative light units per well.

human EPO [1] = test: Example 48 split dose study IM, serum human EPO, product per unit drug and dose splitting factor; assay type: in vivo, mice; settings: for Avg. pmol/mL human EPO: serum 13 h
Protocol: The dosing vehicle (F. buffer) consisted of 150 mM NaCl, 2 mM CaCl2, 2 mM Nat phosphate (1.4 mM monobasic sodium phosphate; 0.6 mM dibasic sodium phosphate), and 0.5 mM EDTA, pH 6.5. The pH was adjusted using sodium hydroxide and the final solution was filter sterilized.
Animals (n=5) were injected IM (intramuscular) for the single unit dose of 100 ug. For multi-dosing, two schedules were used, 3 doses of 100 ug and 6 doses of 100 ug. For the split dosing scheme, two schedules were used, 3 doses at 33.3 ug and 6 doses of 16.5 ug mmRNA. Control dosing involved use of buffer only at 6 doses. […] Blood and muscle tissue were evaluated 13 hrs post injection.
Human EPO protein was measured in mouse serum 13 h post I.M. single, multi- or split dosing of the EPO mmRNA in buffer. Seven groups of mice (n=5 mice per group) were treated and evaluated.
The splitting factor is defined as the product per unit drug divided by the single dose product per unit drug (PUD). For example for treatment group 2 the value 0.28 or product (EPO) per unit drug (mmRNA) is divided by the single dose product per unit drug of 0.14. The result is 2. Likewise, for treatment group 4, the value 1.1 or product (EPO) per unit drug (mmRNA) is divided by the single dose product per unit drug of 0.14. The result is 7.9. Consequently, the dose splitting factor (DSF) may be used as an indicator of the efficacy of a split dose regimen. For any single administration of a total daily dose, the DSF should be equal to 1. Therefore any DSF greater than this value in a split dose regimen is an indication of increased efficacy.

human EPO [2] = test: Example 43 multi-dose/multi-administration IM, serum human EPO; assay type: in vivo, Sprague-Dawley rats; settings: rat serum 13 h post I.M.
Protocol: The dosing vehicle (F. buffer) was used as a control.
Animals (n=5), Sprague-Dawley rats, were injected IM (intramuscular) for the single unit dose of 100 ug (delivered to one thigh). For multi-dosing 6 doses of 100 ug (delivered to two thighs) were used for both EPO and G-CSF mmRNA. Control dosing involved use of buffer at a single dose. Human EPO blood levels were evaluated 13 hrs post injection.
Human EPO protein was measured in rat serum 13 h post I.M. Five groups of rats were treated and evaluated.

[3] = system: peripheral blood mononuclear cells (PBMC); test: Modified RNA transfected in PBMC: IFN-alpha and TNF-alpha at 6 and 18 hours (ELISA); assay type: cell-based, human
Protocol: (§1) 500 ng of G-CSF mRNA modified with 5-methylcytosine (5mC) and pseudouridine (pseudoU) or unmodified G-CSF mRNA was transfected with 0.4 uL of Lipofectamine 2000 into peripheral blood mononuclear cells (PBMC) from three normal blood donors (D1, D2, and D3). […] The supernatant was harvested 6 hours and 18 hours after transfection and run by ELISA to determine the protein expression. The expression of G-CSF, IFN-alpha, and TNF-alpha for Donor 1 is shown in Table 86, Donor 2 is shown in Table 87 and Donor 3 is shown in Table 88.

[4] = system: peripheral blood mononuclear cells (PBMC); test: IFN-alpha and TNF-alpha expression in transfected PBMC (ELISA) and PC ratio; assay type: cell-based, human; settings: for IFN-alpha expression / TNF-alpha Expression: ELISA 22 hours after transfection
Protocol: The supernatant was harvested and run by ELISA 22 hours after transfection to determine the protein expression.

[5] = system: peripheral blood mononuclear cells (PBMC); test: Example 46A percent-modified G-CSF mRNA transfected in PBMC, G-CSF ELISA; assay type: cell-based, human
Protocol: (§2) 960 ng of G-CSF mRNA modified with 5-methylcytosine (5mC) and pseudouridine (pseudoU) or unmodified G-CSF mRNA was transfected with 0.8 uL of Lipofectamine 2000 into peripheral blood mononuclear cells (PBMC) from three normal blood donors (D1, D2, D3). […] The supernatant was harvested and run by ELISA 22 hours after transfection to determine the protein expression. The expression of IFN-alpha and TNF-alpha may be a secondary effect from the transfection of the G-CSF mRNA.

HEK293 = test: Example 46B percent-modified G-CSF mRNA transfected in HEK293, secreted G-CSF ELISA; assay type: cell-based, human; settings: HEK293, 250 ng mRNA with RNAiMAX, supernatant after 16 hours
Protocol: Human embryonic kidney epithelial (HEK293) cells were seeded on 96-well plates at a density of 30,000 cells per well in 100 ul cell culture medium. 250 ng of modified G-CSF mRNA (SEQ ID NO: 6; polyA tail of approximately 160 nucleotides not shown in sequence; 5′cap, Cap1) formulated with RNAiMAX™ (Invitrogen, Carlsbad, Calif.) was added to a well. The G-CSF was completely modified with 5mC and pseudoU (100% modification), not modified with 5mC and pseudoU (0% modification) or was partially modified with 5mC and pseudoU so the mRNA would contain 75% modification, 50% modification or 25% modification. Control samples (AK 5/2, mCherry (SEQ ID NO: 7; polyA tail of approximately 160 nucleotides not shown in sequence; 5′cap, Cap1; fully modified 5mC and pseudoU) and untreated) were also analyzed. […] The supernatants were harvested after 16 hours and the secreted G-CSF protein was analyzed by ELISA.

[6] = system: peripheral blood mononuclear cells (PBMC); test: G-CSF expression in PBMC transfected with partially modified G-CSF mRNA (ELISA); assay type: cell-based, human; settings: for G-CSF Expression: ELISA 22 hours after transfection
Protocol: as §2, with “480” for “960”, “0.4” for “0.8”, “D2, and” for “D2,”

[7] = system: peripheral blood mononuclear cells (PBMC); test: Modified RNA transfected in PBMC: G-CSF expression at 6 and 18 hours (ELISA); assay type: cell-based, human
Protocol: as §1

[8] = PBMC, from averages of Tables 83 and 84

Unmodified Luciferase: unmodified luciferase mRNA SEQ ID NO: 16, polyA about 140, Cap1
RLU (HeLa cells): 33980 RLU

B1: Human EPO mmRNA (nucleic acid, listed as Homo sapiens)
sense: GGGAAAUAAGAGAGAAAAGAAGAGUAAGAAGAAAUAUAAGAGCCACCAUGGGAGUGCACGAGUGUCCCGCGUGGUUGUGGUUGCUGCUGUCGCUCUUGAGCCUCCCACUGGGACUGCCUGUGCUGGGGGCACCACCCAGAUUGAUCUGCGACUCACGGGUACUUGAGAGGUACCUUCUUGAAGCCAAAGAAGCCGAAAACAUCACAACCGGAUGCGCCGAGCACUGCUCCCUCAAUGAGAACAUUACUGUACCGGAUACAAAGGUCAAUUUCUAUGCAUGGAAGAGAAUGGAAGUAGGACAGCAGGCCGUCGAAGUGUGGCAGGGGCUCGCGCUUUUGUCGGAGGCGGUGUUGCGGGGUCAGGCCCUCCUCGUCAACUCAUCACAGCCGUGGGAGCCCCUCCAACUUCAUGUCGAUAAAGCGGUGUCGGGGCUCCGCAGCUUGACGACGUUGCUUCGGGCUCUGGGCGCACAAAAGGAGGCUAUUUCGCCGCCUGACGCGGCCUCCGCGGCACCCCUCCGAACGAUCACCGCGGACACGUUUAGGAAGCUUUUUAGAGUGUACAGCAAUUUCCUCCGCGGAAAGCUGAAAUUGUAUACUGGUGAAGCGUGUAGGACAGGGGAUCGCUGAUAAGCUGCCUUCUGCGGGGCUUGCCUUCUGGCCAUGCCCUUCUUCUCUCCCUUGCACCUGUACCUCUUGGUCUUUGAAUAAAGCCUGAGUAGGAAG
modifications: 5' Cap1, polyA tail ~160 nt
Dose Splitting Factor (human EPO [1]; 1 × 100 ug, total 100 ug): 1
Polypeptide per unit drug (human EPO [1]; 1 × 100 ug, total 100 ug): 0.14 pmol/µg
Avg. pmol/mL human EPO (human EPO [1]; 1 × 100 ug, total 100 ug): 14.3 pmol/mL
Dose Splitting Factor (human EPO [1]; 3 × 33.3 ug, total 100 ug): 7.9
Polypeptide per unit drug (human EPO [1]; 3 × 33.3 ug, total 100 ug): 1.1 pmol/µg
Avg. pmol/mL human EPO (human EPO [1]; 3 × 33.3 ug, total 100 ug): 104.7 pmol/mL
Dose Splitting Factor (human EPO [1]; 3 × 100 ug, total 300 ug): 2
Polypeptide per unit drug (human EPO [1]; 3 × 100 ug, total 300 ug): 0.28 pmol/µg
Avg. pmol/mL human EPO (human EPO [1]; 3 × 100 ug, total 300 ug): 82.5 pmol/mL
Dose Splitting Factor (human EPO [1]; 6 × 16.5 ug, total 100 ug): 9.3
Polypeptide per unit drug (human EPO [1]; 6 × 16.5 ug, total 100 ug): 1.3 pmol/µg
Avg. pmol/mL human EPO (human EPO [1]; 6 × 16.5 ug, total 100 ug): 127.9 pmol/mL
Dose Splitting Factor (human EPO [1]; 6 × 100 ug, total 600 ug): 3.3
Polypeptide per unit drug (human EPO [1]; 6 × 100 ug, total 600 ug): 0.46 pmol/µg
Avg. pmol/mL human EPO (human EPO [1]; 6 × 100 ug, total 600 ug): 273.0 pmol/mL
Avg. human EPO (human EPO [2]; 1 × 100 ug, total dose 100 ug): 143 pg/mL
Avg. human EPO (human EPO [2]; 6 × 100 ug, total dose 600 ug): 256 pg/mL

B2: 100% modification: G-CSF mRNA (SEQ ID NO: 6, Cap1) completely modified with 5mC and pseudoU (nucleic acid, listed as Homo sapiens)
chain: GGGAAAUAAGAGAGAAAAGAAGAGUAAGAAGAAAUAUAAGAGCCACCAUGGCCGGUCCCGCGACCCAAAGCCCCAUGAAACUUAUGGCCCUGCAGUUGCUGCUUUGGCACUCGGCCCUCUGGACAGUCCAAGAAGCGACUCCUCUCGGACCUGCCUCAUCGUUGCCGCAGUCAUUCCUUUUGAAGUGUCUGGAGCAGGUGCGAAAGAUUCAGGGCGAUGGAGCCGCACUCCAAGAGAAGCUCUGCGCGACAUACAAACUUUGCCAUCCCGAGGAGCUCGUACUGCUCGGGCACAGCUUGGGGAUUCCCUGGGCUCCUCUCUCGUCCUGUCCGUCGCAGGCUUUGCAGUUGGCAGGGUGCCUUUCCCAGCUCCACUCCGGUUUGUUCUUGUAUCAGGGACUGCUGCAAGCCCUUGAGGGAAUCUCGCCAGAAUUGGGCCCGACGCUGGACACGUUGCAGCUCGACGUGGCGGAUUUCGCAACAACCAUCUGGCAGCAGAUGGAGGAACUGGGGAUGGCACCCGCGCUGCAGCCCACGCAGGGGGCAAUGCCGGCCUUUGCGUCCGCGUUUCAGCGCAGGGCGGGUGGAGUCCUCGUAGCGAGCCACCUUCAAUCAUUUUUGGAAGUCUCGUACCGGGUGCUGAGACAUCUUGCGCAGCCGUGAAGCGCUGCCUUCUGCGGGGCUUGCCUUCUGGCCAUGCCCUUCUUCUCUCCCUUGCACCUGUACCUCUUGGUCUUUGAAUAAAGCCUGAGUAGGAAG
modifications: Cap1; fully 5-methylcytidine and pseudouridine modified
IFN-alpha ([3]; PBMC Donor 1, 6 hours): 1 pg/mL
TNF-alpha ([3]; PBMC Donor 1, 6 hours): 0 pg/mL
IFN-alpha ([3]; PBMC Donor 1, 18 hours): 13 pg/mL
TNF-alpha ([3]; PBMC Donor 1, 18 hours): 0 pg/mL
IFN-alpha ([3]; PBMC Donor 2, 6 hours): 0 pg/mL
TNF-alpha ([3]; PBMC Donor 2, 6 hours): 0 pg/mL
IFN-alpha ([3]; PBMC Donor 2, 18 hours): 7 pg/mL
TNF-alpha ([3]; PBMC Donor 2, 18 hours): 11 pg/mL
IFN-alpha ([3]; PBMC Donor 3, 6 hours): 7 pg/mL
TNF-alpha ([3]; PBMC Donor 3, 6 hours): 11 pg/mL
IFN-alpha ([3]; PBMC Donor 3, 18 hours): 658 pg/mL
TNF-alpha ([3]; PBMC Donor 3, 18 hours): 11 pg/mL
ratio of protein/cytokine production versus natural G-CSF mRNA, IFN-alpha ([4]; PBMC): 100 fold
ratio of protein/cytokine production versus natural G-CSF mRNA, TNF-alpha ([4]; PBMC): 27 fold
IFN-alpha expression ([4]; PBMC donor D1): 336.5 pg/mL
TNF-alpha Expression ([4]; PBMC donor D1): 115.0 pg/mL
IFN-alpha expression ([4]; PBMC donor D2): 78.0 pg/mL
TNF-alpha Expression ([4]; PBMC donor D2): 15.0 pg/mL
IFN-alpha expression ([4]; PBMC donor D3): 46.4 pg/mL
TNF-alpha Expression ([4]; PBMC donor D3): 11.1 pg/mL
G-CSF/IFN-alpha (PC ratio) [4, 8]: 16
G-CSF/TNF-alpha (PC ratio) [4, 8]: 52
Average IFN-a ([4]; average of PBMC donors D1-D3): 153 pg/mL
Average TNF-a ([4]; average of PBMC donors D1-D3): 47 pg/mL
G-CSF Expression ([5]; PBMC donor D1, 960 ng mRNA): 270.3 pg/mL
G-CSF Expression ([5]; PBMC donor D2, 960 ng mRNA): 151.6 pg/mL
G-CSF Expression ([5]; PBMC donor D3, 960 ng mRNA): 162.2 pg/mL
G-CSF Expression (HEK293): 118.4 ng/mL
G-CSF Expression ([6]; PBMC donor D1, 480 ng mRNA + Lipofectamine 2000): 1968.9 pg/mL
G-CSF Expression ([6]; PBMC donor D2, 480 ng mRNA): 2595.6 pg/mL
G-CSF Expression ([6]; PBMC donor D3, 480 ng mRNA): 2835.7 pg/mL
Average G-CSF ([6]; average of PBMC donors D1-D3): 2466 pg/mL
G-CSF ([7]; PBMC Donor 1, 500 ng mRNA, 6 hours): 1815 pg/mL
G-CSF ([7]; PBMC Donor 1, 18 hours): 2224 pg/mL
G-CSF ([7]; PBMC Donor 2, 6 hours): 2184 pg/mL
G-CSF ([7]; PBMC Donor 2, 18 hours): 2432 pg/mL
G-CSF ([7]; PBMC Donor 3, 6 hours): 6086 pg/mL
G-CSF ([7]; PBMC Donor 3, 18 hours): 7549 pg/mL
